From patent publication US20210079109A1 (Regeneron, published 2021)
Numbering of substitutions follows the chain as printed.

T1: human CD63 (human, UniProt P08962 2-238)
T1 construct: stably transfected in NIH3T3/hCD63; The cell line is named under assay; also called hCD63
T1 sequence: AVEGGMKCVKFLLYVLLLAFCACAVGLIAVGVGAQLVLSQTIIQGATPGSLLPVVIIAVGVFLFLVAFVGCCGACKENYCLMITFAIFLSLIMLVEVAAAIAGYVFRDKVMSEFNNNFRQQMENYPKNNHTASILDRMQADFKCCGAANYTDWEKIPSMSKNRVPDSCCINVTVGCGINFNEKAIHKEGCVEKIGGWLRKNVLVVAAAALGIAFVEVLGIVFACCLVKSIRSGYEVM

B1: H4H11995P2 (antibody, V domains shown)
VH: EVQLVESGGALVQPGRSLRLSCAASGFTFDDYAMHWVRQAPGKGLEWVSGISWNSGTMGYADSVKGRFTISRDNAKKSLYLQMNSLRAEDTALYYCGKGLLHQWEVLDYWGQGTLVTVSS
VL: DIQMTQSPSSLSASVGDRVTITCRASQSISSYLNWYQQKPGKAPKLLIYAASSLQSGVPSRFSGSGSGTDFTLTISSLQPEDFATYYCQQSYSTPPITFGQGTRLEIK
B2: H2M12454N (antibody, V domains shown)
VH: QVQLVESGGGLVKPGGSLRLSCAVSGFTYTDYFMNWIRQAPGKGLEWVSYISNSGAIKYYADSVKGRFTISRDNAKNSLYLQMNGLRADDTAVYYCVRDPRSYYGFDYWGQGTLVTVSS
VL: DIQMTQSPSSLSASVGDRVTITCRASQSISNFLNWYQQKPGKAPRLLIYGASNLQSGVPSRFSGGGSGTDFTLTISSLQPADFATYYCQQSFSNPPVTFGQGTRLEIN
notes: also called H2bM12454N
B3: H2M12385N (antibody, V domains shown)
VH: B2 VH with V24A, Y29F, Y60Q, G85S
VL: B2 VL with S30R, G50A, N53S, A81E, F92Y, V97I, N108K
notes: also called H2bM12385N; H2bM12385
B4: H2M12392N (antibody, V domains shown)
VH: QVQLVESGGGLVKPGGSLRLSCATSGFTFGDYYMNWFRQAPGKGLDWVSYISSSGSTRYYADSVRGRFTISRDNAKNSLYLQMNSLRAEDTAVYYCVRDLRYYYGMDVWGQGTTVTVSS
VL: not shown
notes: also called H2aM12392N

target: T1, human CD63; test: ECL, NIH3T3/hCD63 cells
Method: (§1) LNCAP cells were determined to have a lower human CD63 copy number than U87MG cells. Non-transfected NIH3T3 cells, which have no detectable expression of human CD63 by fluorescence activated cell sorting (FACS), were included as a negative control.
(§2) Briefly, cell lines were rinsed once in PBS buffer without Ca²⁺/Mg²⁺ and incubated for 10 minutes at 37° C. with Enzyme Free Cell Dissociation Solution (Millipore, Cat #S-004-C) to detach the cells. Cells were then washed once with PBS with Ca²⁺/Mg²⁺ and counted with a Cellometer™ Auto T4 cell counter (Nexcelom Bioscience, LLC). Approximately 2.0×10⁴ NIH3T3/hCD63, LNCAP, U87MG or NIH3T3 cells were seeded separately onto 96-well carbon electrode plates […]) and were then incubated for one hour at 37° C. Nonspecific binding sites were blocked with 2% BSA (w/v) in PBS with Ca²⁺/Mg²⁺ for one hour at room temperature (RT). Solutions containing anti-CD63 antibodies or isotype control antibodies at a range of concentrations (1.7 pM to 100 nM) in 0.5% BSA (w/v) in PBS with Ca²⁺/Mg²⁺, as well as control buffer alone, were then added in duplicate to the plate-bound NIH3T3/hCD63, LNCAP, U87MG or NIH3T3 cells and incubated for one hour at RT. Plates were subsequently washed to remove unbound antibodies using an AquaMax2000 plate washer with a cell washing head (MDS Analytical Technologies). […] Plates were washed and then incubated with Read Buffer (MSD, Cat #R92TD-2) according to the manufacturer's instructions. Luminescent signals were measured using a SECTOR Imager (MSD).

Binder	EC50 [nM]	binding ratio at 3.7 nM vs NIH3T3 [fold]
B1	5	212
B2	0.32	175
B3	0.45	71
B4	0.4	608

target: T2, recombinant human CD63 extracellular loop 2 expressed with a C-terminal human Fc tag (human); test: SPR Biacore, mAb captured, 25C
T2 construct: also called hCD63 EC loop 2-hFc; human CD63 EC loop 2-Fc
T2 sequence (chain, as listed by the source limits assumed): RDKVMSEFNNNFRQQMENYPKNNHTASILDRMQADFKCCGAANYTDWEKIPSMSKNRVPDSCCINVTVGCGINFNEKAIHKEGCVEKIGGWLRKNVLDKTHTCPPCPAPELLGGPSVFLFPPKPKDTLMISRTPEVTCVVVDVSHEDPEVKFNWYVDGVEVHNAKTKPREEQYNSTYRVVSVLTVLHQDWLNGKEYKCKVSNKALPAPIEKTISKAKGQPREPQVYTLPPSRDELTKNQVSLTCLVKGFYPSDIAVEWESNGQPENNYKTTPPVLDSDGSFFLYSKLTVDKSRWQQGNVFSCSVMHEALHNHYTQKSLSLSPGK
Method: (§3) Equilibrium dissociation constants (KD) for different CD63 (EC2) loop reagents binding to purified anti-CD63 monoclonal antibodies were determined using a real-time surface plasmon resonance based Biacore T200 biosensor or Biacore 2000 biosensor. All binding studies were performed in 10 mM HEPES, 150 mM NaCl, 3 mM EDTA, and 0.05% v/v Surfactant Tween-20, pH 7.4 (HBS-ET) running buffer at 25° C. and 37° C. The Biacore CMS sensor chip surface was first derivatized by amine coupling with either a rabbit anti-mouse Fc specific polyclonal antibody (GE Healthcare, Cat #BR100838) or an anti-human Fab kit (GE Healthcare, Cat #28958325) to capture anti-CD63 monoclonal antibodies. […] The association rate (Kₐ) and dissociation rate (kd) were determined by fitting the real-time binding sensorgrams to a 1:1 binding model with mass transport limitation using Scrubber 2.0c curve-fitting software. Binding dissociation equilibrium constant (KD) and dissociative half-life (t½) were calculated from the kinetic rates as: […]
(§4) Binding kinetics parameters for human CD63 EC loop 2 protein binding to different anti-CD63 monoclonal antibodies of the invention at 25° C. and 37° C. are shown in Tables 6 through 9.

Binder	100 nM Ag Bound (RU)	Kd [nM]	koff [s⁻¹]	kon [M⁻¹ s⁻¹]	t1/2 [min]
B1	198	10.1	0.00555	552000	2
B2	142	0.523	0.00036	688000	32
B3	121	1.66	0.000984	592000	12
B4	169	0.391	0.000199	510000	58

target: T3, recombinant human CD63 extracellular loop 2 expressed with a C-terminal Myc-Myc-hexahistidine (human); test: SPR Biacore, mAb captured, 25C
T3 construct: also called hCD63 EC loop 2-MMH; human CD63 EC loop 2-MMH
T3 sequence (chain, as listed by the source limits assumed): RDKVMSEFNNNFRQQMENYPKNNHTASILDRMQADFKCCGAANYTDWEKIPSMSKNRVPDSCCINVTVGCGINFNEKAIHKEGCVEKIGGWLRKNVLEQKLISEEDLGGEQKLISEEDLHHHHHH
Method: as §3, §4

Binder	100 nM Ag Bound (RU)	Kd [nM]	koff [s⁻¹]	kon [M⁻¹ s⁻¹]	t1/2 [min]
B1	8				
B2	61	4.89	0.00188	384000	6
B3	48	10.3	0.00331	322000	3
B4	79	3.1	0.000922	298000	13

target: T1, human CD63; test: ECL, LNCAP cells
Method: as §1, §2

Binder	EC50 [nM]	binding ratio at 3.7 nM vs NIH3T3 [fold]
B1	55	5
B2	0.18	14
B3	0.29	5
B4	0.23	51

target: T2, recombinant human CD63 extracellular …; test: SPR Biacore, mAb captured, 37C
Method: as §3, §4

Binder	100 nM Ag Bound (RU)	Kd [nM]	koff [s⁻¹]	kon [M⁻¹ s⁻¹]	t1/2 [min]
B1	116	14.5	0.0188	1.29e+06	1
B2	160	0.895	0.000777	868000	15
B3	133	2.05	0.0017	827000	7
B4	177	0.582	0.000445	765000	26

target: T3, recombinant human CD63 extracellular …; test: SPR Biacore, mAb captured, 37C
Method: as §3, §4

Binder	100 nM Ag Bound (RU)	Kd [nM]	koff [s⁻¹]	kon [M⁻¹ s⁻¹]	t1/2 [min]
B1	3	1620	0.128	79400	0.1
B2	56	10.6	0.00591	559000	2
B3	44	40	0.0109	271000	1
B4	68	7.25	0.00324	447000	4

target: T1, human CD63; test: ECL, U87MG cells
Method: as §1, §2

Binder	EC50 [nM]	binding ratio at 3.7 nM vs NIH3T3 [fold]
B1	13	61
B2	0.47	132
B3	0.64	47
B4	0.53	405
